Data as given in US12677828B2, “Lipid encasing amphipathic peptides” (Kansas State University Research Foundation, priority 2019, dated 2026).

Key:
[1] = Average size and zeta potential by light scattering (ZetaPlus), soy oil colloids; format: physicochemical; conditions: peptide colloids in high purity soy oil
Method: Peptide colloids were prepared with either Ac-FLIVI-KKKKK-CO-NH2 (SEQ ID NO:1, where X is F, “h5F-L”) or Ac-VLIVI-KKKKK-CO-NH2 (SEQ ID NO:1, where X is V, “h5V-L”), in high purity soy oil were tested for average size and zeta potential (surface charge) using light scattering on a ZetaPlus particle sizing instrument. A control was prepared using high purity soy oil mixed with water and sonicated.

Aspergillus nidulans = test: Antifungal activity on spore seeded plates (1% skim milk agar), Example 3; format: cell-based; conditions: 0.5% Captan in 1:1 propionic acid/soy oil, applied as mixture alone (label Captan) or encased in the named peptide; 5 to 40 μL spotted
Method: A 0.5% solution of Captan was prepared in a 1:1 mixture of propionic acid and soy oil (final volume of 10 μL for each peptide). The solution was added to 1 mg of dried peptide. After incubating for 15 min, water (490 μL, pH=3) was added dropwise, then sonicated in a bath sonicator for 5 min at 37° C. and allowed to stand for 20 min. The sample was then centrifuged at room temperature for 10 min at 14K×g. At this point each peptide-lipid complex formed a whitish film on the surface of the water. The volume of water was reduced using a Pipetman leaving a final volume of 150 μL. The solution was again vortexed to resuspend the colloids. An illustration of the colloidal particle with the active ingredient distributed throughout the colloidal body is shown in FIG. 3. A number of different controls were tested along with the peptides prepared with all of the components: soy oil only, soy oil+propionic acid, soy oil+propionic acid+Captan. Volumes of from 5 to 40 μL were spotted on spore seeded plates of Aspergillus nidulans grown on 1% skim milk agar gel) yielding 0.33 and 1.33 μg of active agent delivered, respectively (FIG. 4).
In FIG. 4, lawns of A. were seeded just before testing. The actively growing fungus appears greenish yellow in color. For controls (FIG. 5A) soy oil and soy oil+propionic acid (1:1, v/v) were applied directly to the plates at the indicated volumes. […] When the 1:1 soy plus propionic acid was separately encased using the two peptides (FIG. 5B, columns 1 and 2) there was minimal antifungal activity. In FIG. 5C, column 1, Captan was dissolved in the propionic acid prior to mixing with the soy oil.

[2] = Resizing by extrusion through 100 nm polycarbonate filters; format: physicochemical; conditions: extruded through 100 nm polycarbonate filters
Source text: Given that particle sizes for both peptides were above the nanoscale cutoff of 100 nm, the samples were subjected to resizing by extruding them through 100 nm polycarbonate filters. The […]-L particles were resized to about 80 nm after extrusion (data not shown). The […]-L particles could be resized to about 90 nm.

[3] = Dynamic light scattering of LEAP alone in water (micelles); format: physicochemical; conditions: 1 mg peptide in water, no excipient
Method: One mg of the LEAP (Ac-FLIVIKKKK-CONH2, SEQ ID NO:1, where X is F) was dissolved in 500 μL of DDI-RO water. The solution was sonicated for 10 min then allowed to rest at room temperature for approximately 60 min. This solution was further diluted to 10 mL with DDI-RO water prior to dynamic light scattering analysis. Light scattering data was recorded using an Anton-Parr Litesizer 500 instrument and processed using the proprietary ‘Kalliope’ analysis software. The DLS calculations indicated particles with a hydrodynamic diameter of 928.3 nm with peak numerical intensity at 120.09 nm and a polydispersity index of 229.1%.

[4] = Encapsulation of soy oil containing Nile Red dye by peptide; format: physicochemical; conditions: 22 μL soy oil with Nile Red, 480 μL water
Method: (§1) Initial encapsulation studies were carried out using high purity soy oil containing a lipid soluble dye, Nile Red. Studies were carried out using FLIVI-KKKKK (SEQ ID NO:1, where X is F). Increasing concentrations of the peptide (see FIG. 2) were prepared in Trifluoroethanol and dried in vacuo. To each tube, 22 μL of soy oil containing Nile Red dye (1 mg/mL) was added and allowed to stand for 15 min. Distilled/deionized water (480 μL) was then added and mixed repeatedly using a vortex mixer over a period of at least 5 min. The solution became somewhat cloudy as the dye containing colloids formed at the higher peptide concentrations. 25% was encapsulated at 0.5 mM peptide concentration with 80% encapsulated by the 1 mM peptide concentration. The colloids formed using the FLIVI-KKKKK (SEQ ID NO:1, where X is F) sequence remain stable in a water solution for extended periods of time (at least 12 months).

[5] = Stability of colloids in water solution; format: physicochemical; conditions: soy oil colloids
Method: as §1

[6] = test system: leaves of Vicia faba (Fava beans); test: Effects of formulations sprayed on leaves; conditions: Vicia faba (fava bean), in vivo, 24 h
Method: In this study, we looked at the effects of the Captan fungicide formulation with and without the LEAP peptide when applied to the leaves of Vicia faba (Fava beans). Three formulations were prepared for this experiment: […]
Deionized water was added to each formulation to a final volume 1 mL and allowed to stand at room temperature for 60-90 min. […]

[7] = cited from earlier work
A. nidulans = test: Growth inhibition, Captan alone or LEAP encapsulated at different concentrations, Example 4; format: cell-based, Aspergillus nidulans; conditions: 50 μL per plate
Method: In this example, the effectiveness of Captan alone or encased in a LEAP colloidal particle on A. nidulans growth was compared. Different concentrations of Captan were tested for growth inhibition when applied directly to freshly seeded fungi growing on 1% milk plates or after encapsulation as a colloidal particle with a LEAP (h5F-L). Captan was dissolved in a formulated (1:1:2) solution containing propionic acid, soy oil, and a pesticide synergist, Piperonyl butoxide (PBO). The resulting active solution was diluted to the following concentrations: 1%, 0.1%, 0.05%, 0.01%, 0.005%, 0.001%. A volume of 50 μL of the 1:1:2 solution containing the fungicide was combined with 1 mmole of dry peptide and then allowed to stand for 20 minutes. Deionized water was then added to the colloidal mixture to raise the total volume to 1 mL, followed by sonicating the mixture for 5 minutes, and then incubating for 60-90 minutes. A volume of 50 μL for each test solution was added to the center of each plate (FIG. 6).

M. sexta larvae = test: Persistence assay, 3-day and 5-day waiting period before adding larvae; format: in vivo, Manduca sexta; conditions: Novarulon 0.02%; both waiting periods (3-day, 5-day) before adding first instar larvae
Method: Subsequently, a persistence assay was conducted to see if the LEAP colloidal particles could protect the active ingredient from environmental degradation. Two studies were conducted, one with a 3-day (FIG. 8) and the other with a 5-day (FIG. 9) waiting period before adding the first instar larvae. The methods used to prepare the LEAP colloidal particle encased materials and the preparation of the coated leaves were identical as described above, except that the leaf discs were allowed to sit in the incubator under the previously described conditions outlined above for the designated time period. After the designated waiting period, 1-day old (first instar) M. sexta larvae were place on the treated leaves. Each day the number of dead larvae were counted. Examining FIGS. 8 and 9, it is clear to see that the LEAP colloidal particles containing the active ingredient Novarulon started killing faster than the Novarulon control. […] Since the Novarulon by itself was still active it appears that coating the Novarulon containing oil droplet with the peptide appears to have been ingested more efficiently such that the lethal dose was achieved more rapidly.

## Ac-FLIVI-KKKKK-CO-NH2 (Ac-FLIVIKKKKK-NH2) [h5F-L, lipid encasing amphipathic peptide]
[1]
  GSD: GSD 1.618
  Median Diam.: Median Diam. 363.8 nm
  zeta potential: 46±2.5 mV
Aspergillus nidulans
  antifungal activity: complete growth inhibition
[2]
  particle size after extrusion: about 80 nm
[3]
  peak numerical intensity: 120.09 nm
  polydispersity index: 229.1%
[3]; diluted to 10 mL
  hydrodynamic diameter: 928.3 nm

## FLIVI-KKKKK (XLIVIKKKKK; (1)..(1) X is F or V)
[4]; 0.5 mM peptide concentration
  encapsulated: 25%
[4]; 1 mM peptide concentration
  encapsulated: 80%
[5]
  colloids remain stable in a water solution: at least 12 months

## CCC(=O)O [propionic acid]
[6]
  leaf damage: black spots on the leaves after 24 hr

## O=C1[C@H]2CC=CC[C@H]2C(=O)N1SC(Cl)(Cl)Cl [Captan, (3aR,7aS)-2-[(Trichloromethyl)sulfanyl]-3a,4,7,7a-tetrahydro-1H-isoindole-1,3(2H)-dione]
[7]; C3 organic acid, propionic acid
  solubility in propionic acid: good solubility
[7]; water vs acetone, xylene
  solubility in water relative to acetone and xylene (fold less): 4000 fold
Aspergillus nidulans
  antifungal activity: not very effective
A. nidulans; 0.1% concentration
  growth inhibition: only slight inhibition
A. nidulans; highest concentration (1%), propionic acid, soy oil, PBO (1:1:2)
  growth inhibition: strong growth inhibition

## Ac-VLIVI-KKKKK-CO-NH2 (Ac-VLIVIKKKKK-NH2) [h5V-L, lipid encasing amphipathic peptide]
[1]
  GSD: GSD 1.528
  Median Diam.: Median Diam. 216.5 nm
  zeta potential: 43±1.6 mV
Aspergillus nidulans
  antifungal activity: a small amount of antifungal activity
[2]
  particle size after extrusion: about 90 nm

## 1-[3-chloro-4-phenyl]-3-urea [Novarulon]
M. sexta larvae
  killing of larvae: still active
